Common to all, as to details: both partners purified
In experiment [1] the target is T1, Clk2 (recombinant, covalently immobilised on the CM5 chip) (UniProt P49760 1-499).
T1 construct: Clk2 kinase, recombinant; source: bought: Abcam #AB63190 (recombinant)
Kind of experiment: SPR; Biacore T200; Clk1, Clk2 (1000 RU) and Clk4 (1000 RU) covalently immobilised on a CM5 chip by NHS/EDC; PGC1α titrated in HBS-N without DMSO, 30 µl/min, 60 s association, 120 s dissociation; steady state, one-site specific binding model. (In general: SPR reads the build-up and loss of mass on a sensor chip optically.)

The target in experiment [2] is T2, Clk1 (recombinant, covalently immobilised on the CM5 chip) (UniProt P49759 1-484).
T2 construct: Clk1 kinase, recombinant; The methods print the catalogue number beside PDB 1Z57, which was used for modelling; also called Clk1 GST; source: bought: AbCam #114 706 (recombinant)
T2 sequence (P49759 whole entry): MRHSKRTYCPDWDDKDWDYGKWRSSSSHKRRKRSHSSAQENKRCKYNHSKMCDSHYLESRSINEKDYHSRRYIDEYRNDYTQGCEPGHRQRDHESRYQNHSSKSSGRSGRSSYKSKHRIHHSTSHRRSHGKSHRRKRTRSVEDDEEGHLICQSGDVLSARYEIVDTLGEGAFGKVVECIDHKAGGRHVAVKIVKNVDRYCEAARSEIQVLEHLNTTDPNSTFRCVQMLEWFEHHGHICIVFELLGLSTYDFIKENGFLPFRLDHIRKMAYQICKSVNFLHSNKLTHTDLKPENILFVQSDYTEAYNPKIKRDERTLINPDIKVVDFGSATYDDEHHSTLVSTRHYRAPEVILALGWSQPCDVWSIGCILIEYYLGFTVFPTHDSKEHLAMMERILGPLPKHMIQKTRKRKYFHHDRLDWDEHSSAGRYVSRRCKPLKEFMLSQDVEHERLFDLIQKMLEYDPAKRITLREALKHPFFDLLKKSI
Described as above.

The target in experiment [3] is T3, Clk4 (recombinant, covalently immobilised on the CM5 chip) (UniProt Q9HAZ1 1-481).
T3 construct: Clk4 kinase, recombinant; source: bought: Abcam#AB204144 (recombinant)
T3 sequence (Q9HAZ1 whole entry): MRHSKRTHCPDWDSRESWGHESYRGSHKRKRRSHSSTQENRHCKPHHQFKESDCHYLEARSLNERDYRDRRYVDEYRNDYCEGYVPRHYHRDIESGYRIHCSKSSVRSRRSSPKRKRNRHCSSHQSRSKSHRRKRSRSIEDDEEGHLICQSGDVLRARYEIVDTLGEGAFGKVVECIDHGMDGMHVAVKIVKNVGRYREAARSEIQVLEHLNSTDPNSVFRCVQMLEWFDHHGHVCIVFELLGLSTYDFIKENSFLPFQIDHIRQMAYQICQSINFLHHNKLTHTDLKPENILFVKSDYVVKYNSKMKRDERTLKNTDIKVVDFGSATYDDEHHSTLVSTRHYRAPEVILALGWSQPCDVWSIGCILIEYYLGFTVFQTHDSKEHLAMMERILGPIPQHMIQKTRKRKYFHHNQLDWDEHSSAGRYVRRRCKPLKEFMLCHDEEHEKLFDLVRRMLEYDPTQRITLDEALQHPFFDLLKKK
The description is as above.

Experiment [4] addresses T4, PGC1α 6X his-tagged construct (UniProt Q9UBK2 1-798).
T4 construct: PGC1α, 6X his-tagged construct held on a Ni-NTA chip
T4 sequence (looked up): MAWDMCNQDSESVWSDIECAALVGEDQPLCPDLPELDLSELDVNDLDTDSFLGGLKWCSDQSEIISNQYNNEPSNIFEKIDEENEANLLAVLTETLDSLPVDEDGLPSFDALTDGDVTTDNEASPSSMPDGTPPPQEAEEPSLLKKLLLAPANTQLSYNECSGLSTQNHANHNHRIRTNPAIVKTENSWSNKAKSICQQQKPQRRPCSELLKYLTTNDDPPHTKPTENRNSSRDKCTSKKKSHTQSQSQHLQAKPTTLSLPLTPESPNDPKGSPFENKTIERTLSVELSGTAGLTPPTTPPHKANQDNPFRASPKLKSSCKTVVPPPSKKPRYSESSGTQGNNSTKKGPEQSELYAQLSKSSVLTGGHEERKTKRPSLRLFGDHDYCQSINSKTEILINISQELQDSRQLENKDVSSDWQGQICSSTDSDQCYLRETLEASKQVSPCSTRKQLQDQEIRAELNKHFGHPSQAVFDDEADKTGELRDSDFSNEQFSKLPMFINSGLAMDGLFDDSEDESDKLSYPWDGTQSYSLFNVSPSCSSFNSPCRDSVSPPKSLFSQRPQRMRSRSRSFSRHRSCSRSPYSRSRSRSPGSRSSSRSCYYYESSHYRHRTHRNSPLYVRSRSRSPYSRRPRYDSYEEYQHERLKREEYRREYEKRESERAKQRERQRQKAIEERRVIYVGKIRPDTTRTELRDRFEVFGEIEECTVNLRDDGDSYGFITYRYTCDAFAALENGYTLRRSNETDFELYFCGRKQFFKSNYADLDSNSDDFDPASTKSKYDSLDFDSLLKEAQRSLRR
In words: SPR; Biacore T200; ~1000 RU PGC1α 6X his held non-covalently on a Ni-NTA chip; Clk1 flowed, 30 µl/min; one-site specific binding model with Hill slope.

T1 sequence (P49760 whole entry): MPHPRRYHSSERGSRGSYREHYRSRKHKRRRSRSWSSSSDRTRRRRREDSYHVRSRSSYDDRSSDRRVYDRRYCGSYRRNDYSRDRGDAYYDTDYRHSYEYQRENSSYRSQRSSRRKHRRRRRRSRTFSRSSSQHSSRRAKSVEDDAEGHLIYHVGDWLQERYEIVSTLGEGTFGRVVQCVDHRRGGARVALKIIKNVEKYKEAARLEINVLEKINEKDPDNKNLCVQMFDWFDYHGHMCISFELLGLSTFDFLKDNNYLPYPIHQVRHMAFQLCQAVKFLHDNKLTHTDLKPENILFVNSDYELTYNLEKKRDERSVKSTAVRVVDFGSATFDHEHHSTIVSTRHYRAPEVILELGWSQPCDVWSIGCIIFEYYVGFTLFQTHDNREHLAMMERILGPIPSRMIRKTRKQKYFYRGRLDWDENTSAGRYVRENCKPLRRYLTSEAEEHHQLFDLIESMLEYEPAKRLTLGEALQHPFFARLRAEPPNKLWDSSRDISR

B1: PGC1α (titrated and flowed over the Clk chips) (natural protein)
chain: TRTELRDRFEVFGEIEECTVNLRDDGDSYGFITYRYTCDAFAALENGYTLRRSNETDFELYFCGRKQFFKSNYADLDSNSDDFDPASTKSKYDSLDFDSLLKEAQRSLRR
modifications: Limits are not printed. They are recalled from the supplier's listing for catalogue H00010891-Q01 (partial human PPARGC1A, NP_037393 aa 689-798, N-terminal GST) and should be verified. GST is left …
Broadly, the Kd is a measure of binding affinity in units of concentration. Regarding B1, the Kd in experiment [1] stood at 980 nM; in experiment [2], 240 nM; in experiment [3] it was 509 nM.

B2: Clk1 (flowed over immobilised PGC1α 6X his) (enzyme)
chain: not shown
notes: Clk1 kinase, recombinant; May be the same bought protein as m1 (AbCam #114 706)
As to B2, in experiment [4], the Kd is about 38 nM.

(Values after paper PMC9344812, “Induction of beige‐like adipocyte markers and functions in 3T3‐L1 cells by Clk1 and PKCβII inhibitory molecules” (Journal of Cellular and Molecular Medicine, 2022).)
